Assays:
[1] = target: T1, FLI1 F362A 259-399 (UniProt Q01543 259-399, F362A); assay: X-ray crystallography
T1 sequence: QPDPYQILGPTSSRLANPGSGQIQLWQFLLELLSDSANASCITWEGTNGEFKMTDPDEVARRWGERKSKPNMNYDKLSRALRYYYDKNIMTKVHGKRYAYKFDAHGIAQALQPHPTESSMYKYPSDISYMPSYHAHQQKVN

[2] = target: T1, FLI1 F362A 259-399; assay: fluorescence anisotropy
[3] = target: T2, FLI1 F362A 259-375 (UniProt Q01543 259-375, F362A); assay: fluorescence anisotropy
T2 sequence: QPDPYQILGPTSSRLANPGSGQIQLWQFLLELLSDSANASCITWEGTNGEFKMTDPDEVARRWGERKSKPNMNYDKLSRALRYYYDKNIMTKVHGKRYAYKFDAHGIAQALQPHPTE

[4] = target: T3, FLI1 F362A 259-371 (UniProt Q01543 259-371, F362A); assay: fluorescence anisotropy
T3 sequence: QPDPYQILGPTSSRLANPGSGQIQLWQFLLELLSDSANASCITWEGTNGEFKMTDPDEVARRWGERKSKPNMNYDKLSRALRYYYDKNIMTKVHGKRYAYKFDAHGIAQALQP

[5] = target: T4, FLI1 F362A 276-399 (UniProt Q01543 276-399, F362A); assay: fluorescence anisotropy
T4 sequence: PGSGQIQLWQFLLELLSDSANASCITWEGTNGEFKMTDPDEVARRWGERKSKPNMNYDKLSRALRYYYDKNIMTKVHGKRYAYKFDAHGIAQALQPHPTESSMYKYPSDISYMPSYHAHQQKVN

[6] = target: T5, FLI1 F362A 276-375 (UniProt Q01543 276-375, F362A); assay: fluorescence anisotropy
T5 sequence: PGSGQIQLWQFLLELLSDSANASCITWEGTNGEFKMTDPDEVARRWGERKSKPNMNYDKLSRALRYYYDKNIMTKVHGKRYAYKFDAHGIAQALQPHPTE

[7] = target: T6, FLI1 276-375 N329E/D333G (UniProt Q01543 276-375, N329E;D333G;F362A); assay: fluorescence anisotropy
T6 sequence: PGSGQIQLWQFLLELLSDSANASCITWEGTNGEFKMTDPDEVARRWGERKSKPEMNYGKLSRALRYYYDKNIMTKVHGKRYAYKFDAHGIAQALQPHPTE

[8] = target: T7, FLI1 276-375 N329E (UniProt Q01543 276-375, N329E;F362A); assay: fluorescence anisotropy
T7 sequence: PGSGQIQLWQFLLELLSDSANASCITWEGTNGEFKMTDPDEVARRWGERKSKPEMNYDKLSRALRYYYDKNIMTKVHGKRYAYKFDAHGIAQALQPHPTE

[9] = target: T8, FLI1 276-375 D333G (UniProt Q01543 276-375, D333G;F362A); assay: fluorescence anisotropy
T8 sequence: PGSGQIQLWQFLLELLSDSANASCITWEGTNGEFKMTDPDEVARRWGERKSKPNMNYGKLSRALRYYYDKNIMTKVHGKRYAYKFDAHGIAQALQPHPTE

[10] = target: T9, FLI1 276-371 (UniProt Q01543 276-371); assay: EMSA
T9 sequence: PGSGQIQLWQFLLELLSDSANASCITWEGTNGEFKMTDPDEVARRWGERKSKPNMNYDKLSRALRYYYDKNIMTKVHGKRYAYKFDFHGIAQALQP

[11] = target: T5, FLI1 F362A 276-375; assay: EMSA
[12] = target: T1, FLI1 F362A 259-399; assay: EMSA
[13] = target: T4, FLI1 F362A 276-399; assay: EMSA
[14] = target: T9, FLI1 276-371; assay: fluorescence anisotropy
[15] = target: T2, FLI1 F362A 259-375; assay: fluorescence anisotropy; remark: listed apart in the source
[16] = target: T6, FLI1 276-375 N329E/D333G; assay: fluorescence anisotropy; remark: listed apart in the source
[17] = target: T3, FLI1 F362A 259-371; assay: fluorescence anisotropy; remark: listed apart in the source
[18] = target: T4, FLI1 F362A 276-399; assay: fluorescence anisotropy; remark: listed apart in the source
[19] = target: T7, FLI1 276-375 N329E; assay: fluorescence anisotropy; remark: listed apart in the source
[20] = target: T5, FLI1 F362A 276-375; assay: fluorescence anisotropy; remark: listed apart in the source
[21] = target: T10, FLI1 DBD 259-399 WT (UniProt Q01543 259-399); assay: X-ray crystallography
T10 sequence: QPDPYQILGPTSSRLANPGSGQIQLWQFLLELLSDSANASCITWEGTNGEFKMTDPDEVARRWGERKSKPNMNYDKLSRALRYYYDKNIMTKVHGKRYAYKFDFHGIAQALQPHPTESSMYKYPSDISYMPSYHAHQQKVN

[22] = target: T1, FLI1 F362A 259-399; assay: X-ray crystallography; remark: listed apart in the source
[23] = target: T2, FLI1 F362A 259-375; assay: X-ray crystallography

B1: 4sites (dsDNA)
DNA 1: GACCGGAAGGAAGGAAGGAAGTGCG
DNA 2: CGCACTTCCTTCCTTCCTTCCGGTC
Question: Does B1 bind [1]?
Answer: binds

B2: 2site_weak-weak (w-w) (dsDNA)
DNA 1: CAGAAAGGAAGGAAGTG
DNA 2: CACTTCCTTCCTTTCTG
Question: With B2 as the binder, how does the binding signal [2] read?
Answer: 41 ± 21 cooperativity factor w

Question: What about the binding signal [3] of the same binder?
Answer: 103 ± 26 cooperativity factor w

Question: What about the binding signal [4] of the same binder?
Answer: 22 ± 7 cooperativity factor w

Question: What about the binding signal [5] of the same binder?
Answer: 16 ± 10 cooperativity factor w

Question: And the binding signal [6]?
Answer: 33 ± 20 cooperativity factor w

Question: And the binding signal [7]?
Answer: ~1 cooperativity factor w

Question: What about the binding signal [8] of the same binder?
Answer: 6 ± 6 cooperativity factor w

Question: What about the binding signal [9] of the same binder?
Answer: ~1 cooperativity factor w

B3: 2site_strong-weak (s-w) (dsDNA)
DNA 1: CAGACCGGAAGGAAGTG
DNA 2: CACTTCCTTCCGGTCTG
Question: What does the source list for B3?
Answer: binding result [10]: binds; binding result [11]: binds; binding result [12]: binds; binding result [13]: binds

B4: 1site_weak (dsDNA)
DNA 1: TTGAAGGAAGAG
DNA 2: CTCTTCCTTCAA
Question: How did the Kd [14] turn out when B4 was run?
Answer: 402 ± 172 nM

Question: What about the Kd [15] of the same binder?
Answer: 544 ± 288 nM

Question: What about the Kd [16] of the same binder?
Answer: 126 ± 14 nM

Question: What about the Kd [17] of the same binder?
Answer: 1010 ± 421 nM

Question: And the Kd [18]?
Answer: 146 ± 37 nM

Question: And the Kd [19]?
Answer: 275 ± 39 nM

Question: What about the Kd [20] of the same binder?
Answer: 137 ± 34 nM

B5: 2sites (dsDNA)
DNA 1: GACCGGAAGGAAGTG
DNA 2: CACTTCCTTCCGGTC
Question: Does B5 bind [21]?
Answer: binds

Question: Does B5 bind [22]?
Answer: binds

B6: 3sites (dsDNA)
DNA 1: GACCGGAAGGAAGGAAGTG
DNA 2: CACTTCCTTCCTTCCGGTC
Question: Does B6 bind [23]?
Answer: binds
